Measured values taken from patent publication US8409836B2, “Treatment of cellulosic material and enzymes useful therein” (Roal Oy, priority 2005, dated 2013).

B1: Ct Cel7A: cellobiohydrolase of Chaetomium thermophilum ALKO4265, gene Ct cel7A, amino acid SEQ ID NO: 8, with CBD (protein)
chain: MMYKKFAALAALVAGASAQQACSLTAENHPSLTWKRCTSGGSCSTVNGAVTIDANWRWTHTVSGSTNCYTGNQWDTSLCTDGKSCAQTCCVDGADYSSTYGITTSGDSLNLKFVTKHQYGTNVGSRVYLMENDTKYQMFELLGNEFTFDVDVSNLGCGLNGALYFVSMDADGGMSKYSGNKAGAKYGTGYCDAQCPRDLKFINGEANVGNWTPSTNDANAGFGRYGSCCSEMDVWEANNMATAFTPHPCTTVGQSRCEADTCGGTYSSDRYAGVCDPDGCDFNAYRQGDKTFYGKGMTVDTNKKMTVVTQFHKNSAGVLSEIKRFYVQDGKIIANAESKIPGNPGNSITQEYCDAQKVAFSNTDDFNRKGGMAQMSKALAGPMVLVMSVWDDHYANMLWLDSTYPIDQAGAPGAERGACPTTSGVPAEIEAQVPNSNVIFSNIRFGPIGSTVPGLDGSNPGNPTTTVVPPASTSTSRPTSSTSSPVSTPTGQPGGCTTQKWGQCGGIGYTGCTNCVAGTTCTQLNPWYSQCL
B2: Tr Cel7A: purified cellobiohydrolase I (CBHI/Cel7A) of Trichoderma reesei used as a reference (protein, UniProt P62694 18-513, looked up)
Exoglucanase 1: QSACTLQSETHPPLTWQKCSSGGTCTQQTGSVVIDANWRWTHATNSSTNCYDGNTWSSTLCPDNETCAKNCCLDGAAYASTYGVTTSGNSLSIGFVTQSAQKNVGARLYLMASDTTYQEFTLLGNEFSFDVDVSQLPCGLNGALYFVSMDADGGVSKYPTNTAGAKYGTGYCDSQCPRDLKFINGQANVEGWEPSSNNANTGIGGHGSCCSEMDIWEANSISEALTPHPCTTVGQEICEGDGCGGTYSDNRYGGTCDPDGCDWNPYRLGNTSFYGPGSSFTLDTTKKLTVVTQFETSGAINRYYVQNGVTFQQPNAELGSYSGNELNDDYCTAEEAEFGGSSFSDKGGLTQFKKATSGGMVLVMSLWDDYYANMLWLDSTYPTNETSSTPGAVRGSCSTSSGVPAQVESQSPNAKVTFSNIKFGPIGSTGNPSGGNPPGGNRGTTTTRRPATTTGSSPGPTQSHYGQCGGIGYSGPTVCASGTTCQVLNPYYSQCL

Columns and labels:
Format in all cases: biochemical
[1] = Xylanase activity on birch xylan; conditions: purified cellobiohydrolases, 50° C., pH 5.0
Procedure: (§1) The specific activity of the preparations was determined using 4-methylumbelliferyl-β-D-lactoside (MUL), 4-methylumbelliferyl-β-D-cellobioside (MUG2) or 4-methylumbelliferyl-β-D-cellotrioside (MUG3) as substrate (van Tilbeurgh et al., 1988) in 0.05 M sodium citrate buffer pH 5 at 50° C. for 10 min. Endoglucanase and xylanase activities were determined by standard procedures (according to IUPAC, 1987) using carboxymethyl cellulose (CMC) and birch glucuronoxylan (Bailey et al., 1992) as substrates. Specific activity against Avicel was calculated on the basis of reducing sugars formed in a 24 h reaction at 50° C., pH 5.0, with 1% substrate and 0.25 μM enzyme dosage. The protein content of the purified enzyme preparations was measured according to Lowry et al., 1951. To characterize the end products of hydrolysis, soluble sugars liberated in 24 h hydrolysis experiment, as described above, were analysed by HPLC (Dionex). Purified cellobiohydrolase I (CBHI/Cel7A) of Trichoderma reesei was used as a reference.
Acremonium thermophilum ALKO4245 was grown as described in Example 1. The culture supernatant was incubated at 70° C. for 24 hours after which, it was concentrated by ultrafiltration. The pure xylanase was obtained by sequential purification with hydrophobic interaction and cation exchange chromatography followed by gel filtration. The xylanase activity was determined using birch xylan as substrate (procedure of IUPAC 1987). Protein was assayed by BioRad Protein Assay Kit (Bio-Rad Laboratories) using bovine serum albumin as standard.
Thermoascus aurantiacus ALKO4242 was grown as described in Example 1. The pure xylanase was obtained by sequential purification with hydrophobic interaction, anion, and cation exchange chromatography followed by gel filtration. The xylanase activity was determined using birch xylan as substrate (procedure of IUPAC 1987). Protein was assayed by BioRad Protein Assay Kit (Bio-Rad Laboratories) using bovine serum albumin as standard.

[2] = Hydrolysis with CBH enzyme mixtures, willow; conditions: additional enzymes EGII, bG, 48 h, 45° C., pH 5.0
Procedure: (§2) The performance of the purified recombinant cellobiohydrolases was evaluated in the hydrolysis studies with purified T. reesei enzymes. Hydrolysis was carried out with controlled mixtures of purified enzymes on several pre-treated substrates. […] In addition, pure T. reesei cellulases (purified as described by Suurnäkki et al., 2000) were used in the enzyme mixtures. The cellobiohydrolases used in the experiment were:
(§3) Each CBH/Cel7 to be tested (dosage 14.5 mg/g dry matter of substrate) was used either together with EGII/Cel5A of T. reesei (3.6 mg/g) or with a mixture containing T. reesei EGI/Cel7B (1.8 mg/g), EGII/Cel5A (1.8 mg/g), xylanase pI 9 (Tenkanen et al. 1992) (5000 nkat/g) and acetyl xylan esterase (AXE) (Sundberg and Poutanen, 1991) (250 nkat/g). All mixtures were supplemented with additional β-glucosidase from a commercial enzyme preparation Novozym 188 (176 nkat/g d.w.). Triplicate tubes containing the enzyme mixture and 10 mg (dry matter)/ml of the substrate suspended in 0.05 M sodium acetate were incubated in mixing by magnetic stirring at 45° C. for 48 h. Reference samples with inactivated enzymes and corresponding substrates were also prepared. The release of hydrolysis products was measured as reducing sugars with DNS method using glucose as standard (Table 30).
Washed steam pre-treated willow fibre (pre-treatment for 14 min at 210° C.), dry matter 23.0% (WILLOW).

[3] = Hydrolysis with CBH enzyme mixtures, spruce; conditions: additional enzymes EGII, bG; 48 h, 45° C., pH 5.0
Procedure: as §2, §3
Washed steam pre-treated spruce fibre (impregnation with 3% w/w SO2 for 20 min, followed by steam pre-treatment at 215° C. for 5 min), dry matter 25.9% (SPRUCE).

[4] = Endoglucanase activity on carboxymethyl cellulose; conditions: purified cellobiohydrolases, 50° C., pH 5.0
Procedure: as §1
(§4) Acremonium thermophilum ALKO4245 was grown as described in Example 1. The culture supernatant was incubated at 70° C. for 24 hours after which it was concentrated by ultrafiltration. The pure endoglucanase was obtained by sequential purification with hydrophobic interaction and cation exchange chromatography followed by gel filtration. The endoglucanase activity of the fractions collected during purification was determined using carboxymethyl cellulose (CMC) as substrate (procedure of IUPAC 1987). Protein content was measured by BioRad Assay Kit (Bio-Rad Laboratories) using bovine serum albumine as standard.
as §4, with “Thermoascus aurantiacus ALKO4242 was” for “Acremonium thermophilum ALKO4245 was”, “1.” for “1. The culture supernatant was incubated at 70° C. for 24 hours after which it was concentrated by ultrafiltration.”, “and anion” for “and cation”

[5] = Specific activity against Avicel; conditions: 50° C., pH 5.0, 24 h, 1% substrate, 0.25 μM enzyme
Procedure: as §1

[6] = pH optimum of recombinant CBH/Cel7 proteins; conditions: McIlvaine buffer, pH range 3.0-8.0, MUL, 50° C., 10 min
Procedure: The recombinant CBH/Cel7 enzyme preparations were characterized in terms of pH optimum and thermal stability. The pH optimum of the recombinant CBH/Cel7 proteins from Thermoascus aurantiacus, Chaetomium thermophilum, and Acremonium thermophilum were determined in the universal McIlvaine buffer within a pH range of 3.0-8.0 using 4-methylumbelliferyl-β-D-lactoside (MUL) as a substrate (FIG. 3A). The pH optimum for Ct Cel7A and At Cel7A enzymes is at 5.5, above which the activity starts to gradually drop. The pH optimum of the recombinant crude Ta Cel7A is at 5.0 (FIG. 3A). Thermal stability of the recombinant Cel7 enzymes was determined by measuring the MUL activity in universal McIlvaine buffer at the optimum pH with reaction time of 1 h.

[7] = Specific activity on MUG2; conditions: purified cellobiohydrolases, 50° C., pH 5.0
Procedure: as §1

[8] = Specific activity on MUG3; conditions: purified cellobiohydrolases, 50° C., pH 5.0
Procedure: as §1

Specific activity on MUL = conditions: purified cellobiohydrolases, 50° C., pH 5.0
Procedure: as §1

[9] = Thermal stability of purified cellobiohydrolases; conditions: 0.1% BSA, pH 5.0, 60 min, MUL substrate
Procedure: Thermal stability of the purified cellobiohydrolases was determined at different temperatures. The reaction was performed in the presence of 0.1% BSA at pH 5.0 for 60 min using 4-methylumbelliferyl-β-D-lactoside as substrate. C. thermophilum ALKO4265 CBH/Cel7A and A. thermophilum ALKO4245 CBH/Cel7A were stable up to 65° and 60° C., respectively. The T. reesei reference enzyme (CBHI/Cel7A) retained 100% of activity up to 55° C.

[10] = Hydrolysis with CBH enzyme mixtures, corn stover; conditions: additional enzymes EGII, bG, 48 h, 45° C., pH 5.0
Procedure: as §2, §3
Washed wet oxidized corn stover fibre (WOCS).

[11] = Hydrolysis with CBH enzyme mixtures, Avicel; conditions: additional enzymes EGII, bG; 48 h, 45° C., pH 5.0
Procedure: as §2, §3
Crystalline cellulose (Avicel)

Molecule | Specific activity, Xylan [1] [nkat/mg] | Hydrolysis products as reducing sugars, WILLOW ([2]; EGI, XYL, AXE) [mg/mL] | Hydrolysis products as reducing sugars, WILLOW [2] [mg/mL] | Hydrolysis products as reducing sugars, SPRUCE [3] [mg/mL] | Specific activity, CMC [4] [nkat/mg] | Specific activity, Avicel [5] [nkat/mg] | pH optimum [6] | Specific activity, MUG2 [7] [nkat/mg] | Specific activity, MUG3 [8] [nkat/mg] | Specific activity, MUL (Specific activity on MUL) [nkat/mg] | Thermal stability: temperature up to which stable / 100% of activity retained [9] | Hydrolysis products as reducing sugars, WOCS ([10]; EGI, XYL, AXE) [mg/mL] | Hydrolysis products as reducing sugars, WOCS [10] [mg/mL] | Hydrolysis products as reducing sugars, Avicel [11] [mg/mL]
B1 | 6.7 | 4.0 | 2.6 | 2.6 | 5.5 | 1.4 | 5.5 | 18.9 | 1.5 | 54.0 | up to 65 °C | 5.6 | 3.4 | 6.0
B2 | 1.3 | 4.1 | 2.9 | 2.9 | 1.0 | 0.6 |  | 4.3 | 0.9 | 21.9 | up to 55 °C | 6.0 | 2.9 | 4.7
